Measurements: paper PMC7341804

Target: Arabinosyltransferase B (EmbB) from Mycobacterium smegmatis (Mycobacterium smegmatis) (UniProt Q50395)
Assay: native MS; EmbB in 0.2 M ammonium acetate pH 6.8 with 0.01% C12E8 detergent; Q-Exactive HF Orbitrap UHMR, HCD 150 V, capillary 300 °C

stoichiometry N: 2
Substance: Arabinosyltransferase B (EmbB) from Mycobacterium smegmatis (from UniProt Q50395 1-1082) (enzyme)
